Reference: patent US20210284749A1 (ABL BIO, published 2021)
Where “and” joins values, the source holds several entries; their conditions need not be identical. Identical values can stand only once.

What was measured:
[1] = target: T1, recombinant human BCMA (ELISA antigen, construct not specified) (human, UniProt Q02223 1-54); test: ELISA on recombinant BCMA
T1 construct: Fc 1-51; Fc/His 1-51; Fc 4-48) was coated in these ELISAs; also called recombinant BCMA; recombinant protein
T1 sequence: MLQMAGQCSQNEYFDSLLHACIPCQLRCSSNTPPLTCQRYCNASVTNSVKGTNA

[2] = target: T1, recombinant human BCMA (ELISA antigen, …); test: ELISA, 100 ng coated antigen
Description: (§1) 100 ng of human, monkey, mouse, and rat BCMA antigens prepared in Example 1.1 were coated on the bottom of the plate, and then coated with 3% BSA to block nonspecific binding. Using the selected anti-BCMA IgG antibodies as primary antibodies, and the anti-human Fab HRP (1:20000 dilution) as a secondary antibody, ELISA assay was performed as described in Example 1.3.
(§2) Absorbancies at 450 nm measured with a microplate reader are shown in FIG. 3, and half maximal effective concentrations (EC₅₀) (nM) are shown in Table 9.

[3] = target: T2, monkey (Rhesus) BCMA (1-53) fused to the Fc region of human IgG1 (monkey (Rhesus); human, UniProt Q02223 1-54); test: ELISA, 100 ng coated antigen
T2 construct: Sino Biological Inc. 90103-C02H; also called monkey BCMA; Monkey BCMA (1-53); not shown: Fc region of human IgG1
Description: as §1, §2

[4] = target: T3, human BCMA-Fc/His (1-51) (human, UniProt Q02223 1-51); test: BLI (Octet), antigen on Ni-NTA biosensor, IgG in solution
T3 construct: also called recombinant human BCMA-Fc/His; recombinant human BCMA-His (Sino Biological Inc.); not shown: Fc region; C-terminal His tag
T3 sequence: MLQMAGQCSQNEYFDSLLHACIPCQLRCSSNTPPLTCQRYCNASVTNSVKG
Description: A 96-well black microplate was mounted on a Biosensor tray case, 200 μl of 1XKB was added to each of the 8 wells, and then 8 Ni-NTA biosensors (Fortebio) were inserted thereto for hydration for 10 minutes. For antigen fixation, 5 μg/ml of recombinant human BCMA-His (Sino Biological Inc.) was diluted using 1XKB. Experiments were performed with a threshold of 0.5 to 1.0 nm, and Octet Data Acquisition 9.0 software was activated to create an Octet program template. The first step was for Baseline 1, the second step was for loading, and the threshold was fixed to 0.5 to 1.0 nm. In the third step, which was for Baseline 2, association for 5 minutes and dissociation for 20 minutes were performed. A plate temperature was fixed to 30° C., and the prepared buffer solution was placed in order into a new 96-well black microplate according to the Octet program template. 200 μl of 1XKB used as Baseline 1 and recombinant human BCMA-Fc/His which is an antigen to be loaded were diluted to 5 μg/ml, and 200 μl of the dilution was added thereto. After adding 200 μl of 1XKB used as Baseline 2, 200 μl of the antibody to be reacted with the antigen was dispensed, and the instrument was operated. After completion of the experiment, an association constant (kon), a dissociation constant (kdis), and an equilibrium dissociation constant (KD) for each antibody were analyzed and calculated with Octet Analysis 9.0 software.

[5] = target: T4, human BCMA expressed on cell surface (H929, OPM-2, CHOK1-hBCMA cells) (human, UniProt Q02223 1-184); test: FACS on H929 cells
T4 construct: also called cell-surface BCMA; BCMA on cell surface
T4 sequence: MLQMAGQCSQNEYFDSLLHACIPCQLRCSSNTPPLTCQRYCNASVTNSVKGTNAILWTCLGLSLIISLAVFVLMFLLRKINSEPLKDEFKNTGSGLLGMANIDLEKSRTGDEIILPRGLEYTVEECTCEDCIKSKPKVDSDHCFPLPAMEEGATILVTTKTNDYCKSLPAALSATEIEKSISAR

[6] = target: T2, monkey (Rhesus) BCMA (1-53) fused to …; test: ELISA on 100 ng coated rhesus BCMA, antibody titrated, anti-human Fab HRP, absorbance 450 nm
Description: as §1, §2

[7] = target: T1, recombinant human BCMA (ELISA antigen, …); test: ELISA on coated recombinant human BCMA, antibody titrated, HRP anti-Fab detection, absorbance 450 nm
Description: Specific binding abilities of the anti-BCMA IgG antibodies isolated in Example 1.4 to recombinant BCMA protein were analyzed by ELISA.
Using recombinant human BCMA or monkey BCMA as an antigen, and HRP-conjugated Fab polychronal antibody reagent (Pierce, 31414) as a secondary antibody, ELISA was performed as described in Example 1.3.

[8] = target: T2, monkey (Rhesus) BCMA (1-53) fused to …; test: BLI (Octet), monkey BCMA
[9] = target: T5, human monomeric BCMA antigen (human, UniProt Q02223 5-54, limits assumed); test: SPR (Biacore T200), antibody captured on protein A chip, antigen 6.25-100 nM
T5 construct: also called recombinant human BCMA antigens
T5 chain: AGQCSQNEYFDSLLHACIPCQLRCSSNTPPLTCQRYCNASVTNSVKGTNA
Description: In particular, the prepared antibodies were diluted with a 1×HPS-EP buffer (GE Healthcare, BR-1006-69). The target antigen-binding affinity analysis was performed using a Biacore T200 (GE Healthcare). The antibodies were flowed onto a protein A chip at a contact time of 60 seconds, a stabilization time of 30 seconds, and a flow rate of 30 μl/min until a capture level reached 128 RU (Response Unit), thereby preparing an antibody-captured protein A chip.
The antigen was sequentially diluted with a 1×HPS-EP buffer, by 2-fold each time, from 100 nM to 6.25 nM, thereby preparing a total of […] samples. The 1×HPS-EP buffer was used as a negative control group (blank).
The prepared antigen was flowed across the antibody-captured protein A chip at a flow rate of 30 μl/min for an association time of 60 seconds, followed by a disassociation phase for 180 seconds. Regeneration was performed with a 10-mM Glycine-HCL (pH 1.5) buffer (GE Healthcare, BR-1003-54) at a flow rate of 30 μl/min for a contact time of 30 seconds.

B1: anti-BCMA IgG antibody 5D5 (antibody, V domains shown)
VH: EVQLLESGGGLVQPGGSLRLSCAASGFTFSDYGLSWVRQAPGKGLEWVSLIDSSGSSTFYADSVKGRFTISRDNSKNTLYLQMNSLRAEDTAVYYCAKEHGLFDSWGQGTLVTVSS
VL: EIVLTQSPGTLSLSPGERATLSCKASQDIDDDINWYQQKPGQAPRLLIYDASLRATGIPDRFSGSGSGTDFTLTISRLEPEDFAVYYCQQSLRTPITFGQGTKLEIKR
notes: also called 5D5 WT; 5D5 antibody
Q: With B1 as the binder, how does the EC50 [1] read?
A: 0.0708 nM and 0.0652 nM

Q: And the EC50 [2]?
A: 140 nM

Q: And the EC50 [3]?
A: 94 nM

Q: And the Kd [4]?
A: 0.114 nM

Q: And the koff [4]?
A: 0.000105 s⁻¹

Q: And the kon [4]?
A: 919000 M⁻¹ s⁻¹

Q: And the MFI [5]?
A: 36.4

Q: What about the “EC50 (read off the curve)” value [6] of the same binder?
A: ~0.01 µg/mL

Q: And the “EC50 (read off the curve)” value [7]?
A: ~0.1 µg/mL

Q: And the Kd [8]?
A: 0.346 nM

Q: What about the koff [8] of the same binder?
A: 0.000585 s⁻¹

Q: And the kon [8]?
A: 1.69e+06 M⁻¹ s⁻¹

Q: What about the Kd [9] of the same binder?
A: 22.8 nM

Q: And the koff [9]?
A: 0.0601 s⁻¹

Q: What about the kon [9] of the same binder?
A: 2.63e+06 M⁻¹ s⁻¹

B2: anti-BCMA IgG antibody 5A6 (antibody, V domains shown)
VH: EVQLLESGGGLVQPGGSLRLSCAASGFTFSNYGVHWVRQAPGKGLEWVSYISYSGGTYYNPSLKSRFTISRDNSKNTLYLQMNSLRAEDTAVYYCARDSDDFGFDYWGQGTLVTVSS
VL: QSVLTQPPSASGTPGQRVTISCQGDSLRSYYVNWYQQLPGTAPKLLIYDHSKRPTGVPDRFSGSKSGTSASLAISGLRSEDEADYYCQSYDSSTVVFGGGTKLTVLG
notes: also called 5A6 WT; 5A6 antibody
Q: Which results are given for B2?
A: EC50 [1]: 0.0631 nM and 0.0643 nM and 0.077 nM; EC50 [2]: 100 nM; EC50 [3]: 153 nM; Kd [4]: 0.0212 nM; koff [4]: 1.08e-05 s⁻¹; kon [4]: 509000 M⁻¹ s⁻¹; MFI [5]: 68.2; EC50 (read off the curve) [6]: ~0.02 µg/mL; EC50 (read off the curve) [7]: ~0.1 µg/mL; Kd [8]: 4.51 nM; koff [8]: 0.00163 s⁻¹; kon [8]: 361000 M⁻¹ s⁻¹; Kd [9]: 62.4 nM; koff [9]: 0.0249 s⁻¹; kon [9]: 399000 M⁻¹ s⁻¹
